Data: patent US20190054182A1
Like-named read-outs stand apart in the source and are kept apart here.

Experiments:
[1] = molecular target: T1, MPER binding peptide (Acetyl-[…]-Ttds-Lys-(Biotin)-NH2) (HIV-1)
[2] = molecular target: 20 pseudotyped viruses representing 10 different HIV-1 clades; experiment: cell-based or functional assay
[3] = molecular target: panel of 208 different HIV-1 Env-pseudotyped viruses; experiment: cell-based or functional assay
[4] = molecular target: T1, MPER binding peptide …; experiment: SPR (Biacore) with the MPER binding peptide
[5] = molecular target: 20 pseudotyped viruses representing 10 different HIV-1 clades; experiment: cell-based or functional assay; remark: listed apart in the source

Binder | Ka [1] [M⁻¹] | Kd [1] [nM] | koff [1] [s⁻¹] | kon [1] [M⁻¹ s⁻¹] | Geometric Mean (IC80) [2] [µg/mL] | Median IC80 [2] [µg/mL] | Geometric Mean (IC80) [3] [µg/mL] | Median IC80 [3] [µg/mL] | fold higher affinity than the MPER antibody [4] [fold] | Geometric Mean (IC80) [5] [µg/mL] | Median IC80 [5] [µg/mL]
Binding Protein 2 (protein) light 1: DFVLTQSPHSLSVTPGESASISCKSSHSLIHGDRNNYLAWYVQKPGRSPQLLIYLASSRASGVPDRFSGSGSDKDFTLKISRVETEDVGTYYCMQGRESPWTFGQGTKVDIKDKTHTASELTQDPAVSVALKQTVTITCRGDSLRSHYASWYQKKPGQAPVLLFYGKNNRPSGIPDRFSGSASGNRASLTITGAQAEDEADYYCSSRDKSGSRLSVFGGGTKLTVLDKTHTRTVAAPSVFIFPPSDEQLKSGTASVVCLLNNFYPREAKVQWKVDNALQSGNSQESVTEQDSKDSTYSLSSTLTLSKADYEKHKVYACEVTHQGLSSPVTKSFNRGEC heavy 1: EVRLVESGGGLVKPGGSLRLSCSASGFDFDNAWMTWVRQPPGKGLEWVGRITGPGEGWSVDYAESVKGRFTISRDNTKNTLYLEMNNVRTEDTGYYFCARTGKYYDFWSGYPPGEEYFQDWGQGTLVIVSSDKTHTQVHLTQSGPEVRKPGTSVKVSCKAPGNTLKTYDLHWVRSVPGQGLQWMGWISHEGDKKVIVERFKAKVTIDWDRSTNTAYLQLSGLTSGDTAVYYCAKGSKHRLRDYALYDDDGALNWAVDVDYLSNLEFWGQGTAVTVSSDKTHTASTKGPSVFPLAPSSKSTSGGTAALGCLVKDYFPEPVTVSWNSGALTSGVHTFPAVLQSSGLYSLSSVVTVPSSSLGTQTYICNVNHKPSNTKVDKKVEPKSCDKTHTCPPCPAPELLGGPSVFLFPPKPKDTLMISRTPEVTCVVVDVSHEDPEVKFNWYVDGVEVHNAKTKPREEQYNSTYRVVSVLTVLHQDWLNGKEYKCKVSNKALPAPIEKTISKAKGQPREPQVYTLPPCRDELTKNQVSLWCLVKGFYPSDIAVEWESNGQPENNYKTTPPVLDSDGSFFLYSKLTVDKSRWQQGNVFSCSVLHEALHSHYTQKSLSLSPG heavy 2: RAHLVQSGTAMKKPGASVRVSCQTSGYTFTAHILFWFRQAPGRGLEWVGWIKPQYGAVNFGGGFRDRVTLTRDVYREIAYMDIRGLKPDDTAVYYCARDRSYGDSSWALDAWGQGTTVVVSAASTKGPSVFPLAPSSKSTSGGTAALGCLVKDYFPEPVTVSWNSGALTSGVHTFPAVLQSSGLYSLSSVVTVPSSSLGTQTYICNVNHKPSNTKVDKKVEPKSCDKTHTCPPCPAPELLGGPSVFLFPPKPKDTLMISRTPEVTCVVVDVSHEDPEVKFNWYVDGVEVHNAKTKPREEQYNSTYRVVSVLTVLHQDWLNGKEYKCKVSNKALPAPIEKTISKAKGQPREPQVCTLPPSRDELTKNQVSLSCAVKGFYPSDIAVEWESNGQPENNYKTTPPVLDSDGSFFLVSKLTVDKSRWQQGNVFSCSVLHEALHSHYTQKSLSLSPG light 2: YIHVTQSPSSLSVSIGDRVTINCQTSQGVGSDLHWYQHKPGRAPKLLIHHTSSVEDGVPSRFSGSGFHTSFNLTISDLQADDIATYYCQVLQFFGRGSRLHIKRTVAAPSVFIFPPSDEQLKSGTASVVCLLNNFYPREAKVQWKVDNALQSGNSQESVTEQDSKDSTYSLSSTLTLSKADYEKHKVYACEVTHQGLSSPVTKSFNRGEC | 1.65e+08 | 6.05 | 0.000697 | 115000 | 0.222 | 0.375 | 0.028 | 0.026 | 3.1 |  | 
Binding Protein 3 (protein) light 1: ASELTQDPAVSVALKQTVTITCRGDSLRSHYASWYQKKPGQAPVLLFYGKNNRPSGIPDRFSGSASGNRASLTITGAQAEDEADYYCSSRDKSGSRLSVFGGGTKLTVLDKTHTDFVLTQSPHSLSVTPGESASISCKSSHSLIHGDRNNYLAWYVQKPGRSPQLLIYLASSRASGVPDRFSGSGSDKDFTLKISRVETEDVGTYYCMQGRESPWTFGQGTKVDIKDKTHTRTVAAPSVFIFPPSDEQLKSGTASVVCLLNNFYPREAKVQWKVDNALQSGNSQESVTEQDSKDSTYSLSSTLTLSKADYEKHKVYACEVTHQGLSSPVTKSFNRGEC heavy 1: QVHLTQSGPEVRKPGTSVKVSCKAPGNTLKTYDLHWVRSVPGQGLQWMGWISHEGDKKVIVERFKAKVTIDWDRSTNTAYLQLSGLTSGDTAVYYCAKGSKHRLRDYALYDDDGALNWAVDVDYLSNLEFWGQGTAVTVSSDKTHTEVRLVESGGGLVKPGGSLRLSCSASGFDFDNAWMTWVRQPPGKGLEWVGRITGPGEGWSVDYAESVKGRFTISRDNTKNTLYLEMNNVRTEDTGYYFCARTGKYYDFWSGYPPGEEYFQDWGQGTLVIVSSDKTHTASTKGPSVFPLAPSSKSTSGGTAALGCLVKDYFPEPVTVSWNSGALTSGVHTFPAVLQSSGLYSLSSVVTVPSSSLGTQTYICNVNHKPSNTKVDKKVEPKSCDKTHTCPPCPAPELLGGPSVFLFPPKPKDTLMISRTPEVTCVVVDVSHEDPEVKFNWYVDGVEVHNAKTKPREEQYNSTYRVVSVLTVLHQDWLNGKEYKCKVSNKALPAPIEKTISKAKGQPREPQVYTLPPCRDELTKNQVSLWCLVKGFYPSDIAVEWESNGQPENNYKTTPPVLDSDGSFFLYSKLTVDKSRWQQGNVFSCSVLHEALHSHYTQKSLSLSPG heavy 2: RAHLVQSGTAMKKPGASVRVSCQTSGYTFTAHILFWFRQAPGRGLEWVGWIKPQYGAVNFGGGFRDRVTLTRDVYREIAYMDIRGLKPDDTAVYYCARDRSYGDSSWALDAWGQGTTVVVSAASTKGPSVFPLAPSSKSTSGGTAALGCLVKDYFPEPVTVSWNSGALTSGVHTFPAVLQSSGLYSLSSVVTVPSSSLGTQTYICNVNHKPSNTKVDKKVEPKSCDKTHTCPPCPAPELLGGPSVFLFPPKPKDTLMISRTPEVTCVVVDVSHEDPEVKFNWYVDGVEVHNAKTKPREEQYNSTYRVVSVLTVLHQDWLNGKEYKCKVSNKALPAPIEKTISKAKGQPREPQVCTLPPSRDELTKNQVSLSCAVKGFYPSDIAVEWESNGQPENNYKTTPPVLDSDGSFFLVSKLTVDKSRWQQGNVFSCSVLHEALHSHYTQKSLSLSPG light 2: YIHVTQSPSSLSVSIGDRVTINCQTSQGVGSDLHWYQHKPGRAPKLLIHHTSSVEDGVPSRFSGSGFHTSFNLTISDLQADDIATYYCQVLQFFGRGSRLHIKRTVAAPSVFIFPPSDEQLKSGTASVVCLLNNFYPREAKVQWKVDNALQSGNSQESVTEQDSKDSTYSLSSTLTLSKADYEKHKVYACEVTHQGLSSPVTKSFNRGEC | 6e+07 | 16.7 | 0.000779 | 46700 | 0.287 | 0.469 | 0.051 | 0.045 |  |  | 
MPER Ab (antibody, V domains shown) VH: EVRLVESGGGLVKPGGSLRLSCSASGFDFDNAWMTWVRQPPGKGLEWVGRITGPGEGWSVDYAESVKGRFTISRDNTKNTLYLEMNNVRTEDTGYYFCARTGKYYDFWSGYPPGEEYFQDWGQGTLVIVSS VL: ASELTQDPAVSVALKQTVTITCRGDSLRSHYASWYQKKPGQAPVLLFYGKNNRPSGIPDRFSGSASGNRASLTITGAQAEDEADYYCSSRDKSGSRLSVFGGGTKLTVL | 5.35e+07 | 18.7 | 0.00109 | 58500 |  |  | 1.34 | 1.69 |  |  | 
V1/V2 directed Ab “b” (antibody, V domains shown) VH: QVQLVESGGGVVQPGTSLRLSCAASQFRFDGYGMHWVRQAPGKGLEWVASISHDGIKKYHAEKVWGRFTISRDNSKNTLYLQMNSLRPEDTALYYCAKDLREDECEEWWSDYYDFGKQLPCAKSRGGLVGIADNWGQGTMVTVSS VL: QSVLTQPPSVSAAPGQKVTISCSGNTSNIGNNFVSWYQQRPGRAPQLLIYETDKRPSGIPDRFSASKSGTSGTLAITGLQTGDEADYYCATWAASLSSARVFGTGTKVIVL |  |  |  |  |  |  |  |  |  | 0.039 | 0.051
V1/V2 directed Ab “a” (antibody, V domains shown) VH: QVHLTQSGPEVRKPGTSVKVSCKAPGNTLKTYDLHWVRSVPGQGLQWMGWISHEGDKKVIVERFKAKVTIDWDRSTNTAYLQLSGLTSGDTAVYYCAKGSKHRLRDYALYDDDGALNWAVDVDYLSNLEFWGQGTAVTVSS VL: DFVLTQSPHSLSVTPGESASISCKSSHSLIHGDRNNYLAWYVQKPGRSPQLLIYLASSRASGVPDRFSGSGSDKDFTLKISRVETEDVGTYYCMQGRESPWTFGQGTKVDIK |  |  |  |  | 0.094 | 0.06 | 0.063 | 0.037 |  |  | 
